Measurements: patent US20160279199A1, “PHARMACEUTICAL COMPOSITION FOR TREATING A METABOLIC SYNDROME” (Sanofi, priority 2010, published 2016)

Tests used:
db/db mice [1] = assay: Fed blood glucose during treatment of db/db mice; type: in vivo, mouse; settings: s.c. once daily (AVE0010 0.05, FGF-21 0.75, combination 0.75+0.05 mg·kg−1·day−1), up to 4 weeks, FIG. 6
Procedure: (§1) Female db/db mice (BKS.Cg-m +/+ Leprdb/J, age of 6 weeks) were treated with vehicle (PBS), 0.05 mg·kg^−1·day^−1 AVE0010, 0.75 mg·kg^−1·day^−1 recombinant human FGF-21 (SEQ ID NO: 2) or a combined dose of FGF-21 (SEQ ID NO: 2) and AVE0010 (SEQ ID NO:9), (0.75+0.05 mg·kg^−1·day^−1) subcutaneously once daily. Mice were fed ad libitum. Before the first treatment, after one week and 4 weeks blood glucose and HbA1c were measured under fed conditions. After 21 days of treatment an oral glucose tolerance test (OGTT) was initiated. Fasted mice were orally challenged with 2 g·kg^−1 glucose solution and blood glucose was measured at indicated time points.

db/db mice [2] = assay: Oral glucose tolerance test (OGTT) in treated db/db mice; type: in vivo, mouse; settings: after 21 days s.c. once daily (AVE0010 0.05, FGF-21 0.75, combination 0.75+0.05 mg·kg−1·day−1), fasted, 2 g·kg−1 oral glucose, vs vehicle treated obese control, FIG. 5
Procedure: as §1

mouse 3T3-L1 adipocytes = settings: in the presence and absence of insulin; cited from earlier work
[3] = test system: ob/ob mice, db/db mice, ZDF rats; settings: cited from earlier work
diabetic rhesus monkeys = settings: 6 weeks; cited from earlier work
[4] = ob/ob and db/db mice and obese ZDF rats

Molecule	blood glucose (db/db mice [1])	glucose tolerance (OGTT) (db/db mice [2])	glucose uptake (mouse 3T3-L1 adipocytes)	mitogenicity, hypoglycemia, or weight gain ([3]; any dose tested, diabetic or healthy animals)	food intake or body weight/composition ([3]; diabetic or lean mice and rats, 2 weeks of administration)	fed and fasting blood glucose, triglycerides, and glucagon levels ([3]; ob/ob and db/db mice and 8 week old ZDF rats, dose dependent)	blood glucose and triglycerides [3, 4]	fasting insulin levels [3, 4]	glucose clearance during an oral glucose tolerance test [3, 4]	HDL-cholesterol (diabetic rhesus monkeys)	LDL-cholesterol (diabetic rhesus monkeys)	body weight (diabetic rhesus monkeys)	fasting plasma glucose, fructosamine, triglyceride, insulin and glucagone levels (diabetic rhesus monkeys)	hypoglycemia (diabetic rhesus monkeys)
FGF-21 (SEQ ID NO: 2): mutated FGF-21 carrying a deletion of amino acids 1-28 of human FGF-21 and an additional glycine at the N-terminus (protein, G linked to fragment of human FGF21 from H29 to S209, mutated FGF-21 carrying a deletion of amino acids 1-28 of human FGF-21 and an additional glycine at the N-terminus) GHPIPDSSPLLQFGGQVRQRYLYTDDAQQTEAHLEIREDGTVGGAADQSPESLLQLKALKPGVIQILGVKTSRFLCQRPDGALYGSLHFDPEACSFRELLLEDGYNVYQSEAHGLPLHLPGNKSPHRDPAPRGPARFLPLPGLPPAPPEPPGILAPQPPDVGSSDPLSMVGPSQGRSPSYAS	inhibition of blood glucose increase	small improvement in glucose tolerance	–	–	–	–	–	–	–	–	–	–	–	–
FGF21: Fibroblast growth factor 21, metabolic regulator produced primarily by the liver, as studied in the cited literature (protein, UniProt Q9NSA1 29-209, looked up) Fibroblast growth factor 21: HPIPDSSPLLQFGGQVRQRYLYTDDAQQTEAHLEIREDGTVGGAADQSPESLLQLKALKPGVIQILGVKTSRFLCQRPDGALYGSLHFDPEACSFRELLLEDGYNVYQSEAHGLPLHLPGNKSPHRDPAPRGPARFLPLPGLPPALPEPPGILAPQPPDVGSSDPLSMVGPSQGRSPSYAS	–	–	stimulate glucose uptake	did not induce	did not affect	decrease	significantly lowered	decreased	improved	increased	significantly lowered	slightly but significantly decreased	reduced	not observed
